We go through 15 molecules from US20250270328A1 (BRIGHAM AND WOMEN S HOSPITAL, published 2025).

The target of assay [1] is T1, human KLRB1 protein extracellular domain (ECD) (human, UniProt Q12918 67-225).
T1 construct: range 67-225; The ELISA and SPR text says only 'human KLRB1 ECD'; also called human KLRB1 ECD; CD161
T1 sequence (looked up): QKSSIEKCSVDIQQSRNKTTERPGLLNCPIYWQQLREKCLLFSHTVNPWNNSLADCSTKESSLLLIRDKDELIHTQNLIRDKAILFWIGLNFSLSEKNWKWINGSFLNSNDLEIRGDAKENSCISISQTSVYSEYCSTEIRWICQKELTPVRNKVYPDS
Kind of assay: SPR, human KLRB1 ECD; format not stated. On the procedure: The chimeric antibody 10A3D6-hIgGlk (a mouse/human chimeric antibody with 10A3D6 variable regions and human IgG1-kappa constant regions), chimeric mutated variants (10A3D6C109S, 10A3D6C109F, and 10A3D6C109V), and humanized variants of 10A3D6 created by CDR grafting (Almagro et al. 2008) were assayed for binding against human KLRB1 extracellular domain (ECD) via surface plasma resonance (SPR).
On the technique in general: In SPR one partner is held on a chip, and binding of the other changes the refractive index at the surface.

The target of assay [2] is T2, human KLRB1 expressed on CHO-K1 cells (CHO-hum-KLRB1) (human, UniProt Q12918 1-225).
T2 sequence: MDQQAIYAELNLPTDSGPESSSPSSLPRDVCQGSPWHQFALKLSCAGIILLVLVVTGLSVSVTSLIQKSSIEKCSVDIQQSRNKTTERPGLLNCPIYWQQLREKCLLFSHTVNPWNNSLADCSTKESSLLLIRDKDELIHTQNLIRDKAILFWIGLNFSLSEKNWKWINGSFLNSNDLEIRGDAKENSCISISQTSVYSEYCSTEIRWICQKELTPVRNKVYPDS
Put plainly: cell-based or functional assay.

B1: 10A3D6-hIgG1k (mouse/human chimeric antibody with 10A3D6 variable regions and human IgG1-kappa constant regions) (antibody)
heavy: not shown
light: DIVMTQSHKFMSTSVGDRVNITCKASQDVGTAVVWYQQTPGQSPKVLIDWASIRHTGVPDRFTGSGSGTDFTLTISSVQSEDLADYFCQQYSTYLYTFGGGTKLEIKRTVAAPSVFIFPPSDEQLKSGTASVVCLLNNFYPREAKVQWKVDNALQSGNSQESVTEQDSKDSTYSLSSTLTLSKADYEKHKVYACEVTHQGLSSPVTKSFNRGEC
notes: also called 10A3D6-chimeric; 10A3D6-hIgGlk; copies: 2 + 2
Broadly, the Kd is a measure of binding affinity in units of concentration. The koff is a measure of how fast the partners let go of each other. Higher therefore signals fast dissociation. As a reminder, the kon is the rate constant with which the complex forms. A lower kon goes with slow association. In assay [1], B1 displayed a Kd of 0.172 nM, a koff of 0.000191 s⁻¹ and a kon of 1.11e+06 M⁻¹ s⁻¹.

B2: 10A3D6hum2.2-afuc (afucosylated 10A3D6hum2.2) (antibody, human IgG1, kappa, V domains shown)
VH: QVQLVQSGAEVKKPGASVKVSCKASGYSFTGYTMNWVRQAPGQNLEWIGLINPNTGGTYYNQKFKDRVTLTVDTSISTAYMELSRLRSDDTAVYYCARLGDNYRGYFDSWGQGTTVTVSS
VL: DIQLTQSPSFLSASVGDRVTITCKASQDVGTAVVWYQQKPGKAPKLLIDWASIRHTGVPSRFSGSGSGTEFTLTISSLQPEDFADYFCQQYSTYLYTFGGGTKLEIKR
modifications: Fc N-glycan afucosylated (produced in FUT8 knockout cells). The amino-acid letters are unchanged from 10A3D6hum2.2.
As to B2, the “ADCC target cell killing EC50 (flow cytometry, human NK cells)” value in assay [2] came to 0.01 nM.

B3: 10A3D6C109Chum2.5 (antibody, V domains shown)
VH: QVQLVQSGAEVKKPGASVKVSCKASGYSFTGYTMNWVRQAPGQNLEWIGLINPNTGGTYYNQKFKDRVTLTVDTSISTAYMELSRLRSDDTAVYYCARLGDNYRGYFDCWGQGTTVTVSS
VL: EIVMTQSPATLSVSPGERATLSCKASQDVGTAVVWYQQKPGQAPRLLIDWASIRHTGIPARFSGSGSGTEFTLTISSLQSEDFAVYYCQQYSTYLYTFGGGTKVEIK
notes: Humanized variant of 10A3D6 made by CDR grafting
In assay [1], B3 showed a Kd of 0.11 nM, a koff of 9.49e-05 s⁻¹ and a kon of 861000 M⁻¹ s⁻¹.

B4: 10A3D6hum1.2 (antibody, V domains shown)
VH: QVQLVQSGAEVKKPGASVKVSCKASGYSFTGYTMNWVRQAPGQGLEWMGLINPNTGGTYYNQKFKDRVTMTRDTSISTAYMELSRLRSDDTAVYYCARLGDNYRGYFDSWGQGTTVTVSS
VL: DIQLTQSPSFLSASVGDRVTITCKASQDVGTAVVWYQQKPGKAPKLLIDWASIRHTGVPSRFSGSGSGTEFTLTISSLQPEDFADYFCQQYSTYLYTFGGGTKLEIKR
modifications: Fluorescently labelled in the competition assay; dye and attachment site not stated.
notes: Humanized antibody; also called 103AD6hum1.2; copies: 2 + 2
For B4, in assay [1], binding was characterised by a dissociation constant (Kd) of 0.147 nM, the koff is 0.000183 s⁻¹ and the kon turned out to be 1.24e+06 M⁻¹ s⁻¹.

B5: 10A3D6C109Chum5.1 (antibody, V domains shown)
VH: QVQLVQSGAEVKKPGASVKVSCKASGYSFTGYTMNWVRQAPGQNLEWMGLINPNTGGTYYNQKFKDRVTLTVDTSISTAYMELSRLRSDDTVVYYCARLGDNYRGYFDCWGQGTLVTVSS
VL: DIQLTQSPSFLSASVGDRVTITCKASQDVGTAVVWYQQKPGKAPKLLIYWASIRHTGVPSRFSGSGSGTEFTLTISSLQPEDFATYYCQQYSTYLYTFGGGTKLEIK
notes: as for B3
Regarding B5, in assay [1], the Kd turned out to be 10.2 nM, the koff was determined as 0.0196 s⁻¹ and the kon was determined as 1.92e+06 M⁻¹ s⁻¹.

B6: 10A3D6C109Chum1.5 (antibody, V domains shown)
VH: QVQLVQSGAEVKKPGASVKVSCKASGYSFTGYTMNWVRQAPGQGLEWMGLINPNTGGTYYNQKFKDRVTMTRDTSISTAYMELSRLRSDDTAVYYCARLGDNYRGYFDCWGQGTTVTVSS
VL: EIVMTQSPATLSVSPGERATLSCKASQDVGTAVVWYQQKPGQAPRLLIDWASIRHTGIPARFSGSGSGTEFTLTISSLQSEDFAVYYCQQYSTYLYTFGGGTKVEIK
notes: as for B3
In the case of B6, in assay [1], the equilibrium dissociation constant (Kd) amounted to 0.0881 nM, the koff was 9e-05 s⁻¹ and the kon was determined as 1.02e+06 M⁻¹ s⁻¹.

B7: 10A3D6C109Chum5.2 (antibody, V domains shown)
VH: QVQLVQSGAEVKKPGASVKVSCKASGYSFTGYTMNWVRQAPGQNLEWMGLINPNTGGTYYNQKFKDRVTLTVDTSISTAYMELSRLRSDDTVVYYCARLGDNYRGYFDCWGQGTLVTVSS
VL: DIQLTQSPSFLSASVGDRVTITCKASQDVGTAVVWYQQKPGKAPKLLIDWASIRHTGVPSRFSGSGSGTEFTLTISSLQPEDFADYFCQQYSTYLYTFGGGTKLEIK
notes: as for B3
Regarding B7, in assay [1], the Kd was determined as 0.173 nM, the koff amounted to 0.000138 s⁻¹ and the kon is 800000 M⁻¹ s⁻¹.

B8: 10A3D6C109Chum5.5 (antibody, V domains shown)
VH: QVQLVQSGAEVKKPGASVKVSCKASGYSFTGYTMNWVRQAPGQNLEWMGLINPNTGGTYYNQKFKDRVTLTVDTSISTAYMELSRLRSDDTVVYYCARLGDNYRGYFDCWGQGTLVTVSS
VL: EIVMTQSPATLSVSPGERATLSCKASQDVGTAVVWYQQKPGQAPRLLIDWASIRHTGIPARFSGSGSGTEFTLTISSLQSEDFAVYYCQQYSTYLYTFGGGTKVEIK
notes: as for B3
In the case of B8, in assay [1], the Kd amounted to 0.17 nM, the koff turned out to be 0.000139 s⁻¹ and the kon worked out at 816000 M⁻¹ s⁻¹.

B9: 10A3D6C109Chum3.5 (antibody, V domains shown)
VH: QVQLVQSGAEVKKPGASVKVSCKASGYSFTGYTMNWVRQAHGQNLEWIGLINPNTGGTYYNQKFKDRVTLTVDTSISTAYMELSRLRSDDTAVYYCARLGDNYRGYFDCWGQGTTVTVSS
VL: EIVMTQSPATLSVSPGERATLSCKASQDVGTAVVWYQQKPGQAPRLLIDWASIRHTGIPARFSGSGSGTEFTLTISSLQSEDFAVYYCQQYSTYLYTFGGGTKVEIK
notes: as for B3
Consider B9, for which, in assay [1], the Kd turned out to be 0.144 nM, the koff came out at 0.000114 s⁻¹ and the kon came out at 792000 M⁻¹ s⁻¹.

B10: 10A3D6C109Chum4.5 (antibody, V domains shown)
VH: QVQLVQSGAEVKKPGASVKVSCKASGYSFTGYTMNWVRQAHGQNLEWIGLINPNTGGTYYNQKFKDRATLTVDTSISTAYMELSRLRSDDTAVYYCARLGDNYRGYFDCWGQGTTVTVSS
VL: EIVMTQSPATLSVSPGERATLSCKASQDVGTAVVWYQQKPGQAPRLLIDWASIRHTGIPARFSGSGSGTEFTLTISSLQSEDFAVYYCQQYSTYLYTFGGGTKVEIK
notes: as for B3
In the case of B10, in assay [1], binding was put at a Kd of 0.127 nM, the koff turned out to be 0.000107 s⁻¹ and the kon was 843000 M⁻¹ s⁻¹.

B11: 10A3D6C109Chum4.4 (antibody, V domains shown)
VH: QVQLVQSGAEVKKPGASVKVSCKASGYSFTGYTMNWVRQAHGQNLEWIGLINPNTGGTYYNQKFKDRATLTVDTSISTAYMELSRLRSDDTAVYYCARLGDNYRGYFDCWGQGTTVTVSS
VL: DIQLTQSPSFLSASVGDRVTITCKASQDVGTAVVWYQQTPGKAPKLLIDWASIRHTGVPDRFSGSGSGTEFTLTISSLQPEDFADYFCQQYSTYLYTFGGGTKLEIK
notes: as for B3
For B11, in assay [1], the Kd was found to be 0.103 nM, the koff was 9.88e-05 s⁻¹ and the on-rate (kon) was 963000 M⁻¹ s⁻¹.

B12: 10A3D6hum1.5 (antibody, V domains shown)
VH: QVQLVQSGAEVKKPGASVKVSCKASGYSFTGYTMNWVRQAPGQGLEWMGLINPNTGGTYYNQKFKDRVTMTRDTSISTAYMELSRLRSDDTAVYYCARLGDNYRGYFDSWGQGTTVTVSS
VL: EIVMTQSPATLSVSPGERATLSCKASQDVGTAVVWYQQKPGQAPRLLIDWASIRHTGIPARFSGSGSGTEFTLTISSLQSEDFAVYYCQQYSTYLYTFGGGTKVEIK
notes: Humanized antibody
Take B12: in assay [1], the Kd turned out to be 0.111 nM, the koff came to 0.000178 s⁻¹ and the kon came to 1.6e+06 M⁻¹ s⁻¹.

B13: 10A3D6C109Chum5.3 (antibody, V domains shown)
VH: QVQLVQSGAEVKKPGASVKVSCKASGYSFTGYTMNWVRQAPGQNLEWMGLINPNTGGTYYNQKFKDRVTLTVDTSISTAYMELSRLRSDDTVVYYCARLGDNYRGYFDCWGQGTLVTVSS
VL: DIQLTQSPSFLSASVGDRVTITCKASQDVGTAVVWYQQTPGKAPKLLIDWASIRHTGVPSRFSGSGSGTEFTLTISSLQPEDFADYFCQQYSTYLYTFGGGTKLEIK
notes: as for B3
With B13, in assay [1], the Kd came to 0.155 nM, the koff turned out to be 0.000134 s⁻¹ and the association rate constant (kon) was 868000 M⁻¹ s⁻¹.

B14: 10A3D6C109Chum5.4 (antibody, V domains shown)
VH: QVQLVQSGAEVKKPGASVKVSCKASGYSFTGYTMNWVRQAPGQNLEWMGLINPNTGGTYYNQKFKDRVTLTVDTSISTAYMELSRLRSDDTVVYYCARLGDNYRGYFDCWGQGTLVTVSS
VL: DIQLTQSPSFLSASVGDRVTITCKASQDVGTAVVWYQQTPGKAPKLLIDWASIRHTGVPDRFSGSGSGTEFTLTISSLQPEDFADYFCQQYSTYLYTFGGGTKLEIK
notes: as for B3
In assay [1], B14 displayed a dissociation constant Kd of 0.143 nM, a koff of 0.000133 s⁻¹ and a kon of 930000 M⁻¹ s⁻¹.

B15: 10A3D6hum2.2 (antibody, human IgG1, kappa, V domains shown)
VH: QVQLVQSGAEVKKPGASVKVSCKASGYSFTGYTMNWVRQAPGQNLEWIGLINPNTGGTYYNQKFKDRVTLTVDTSISTAYMELSRLRSDDTAVYYCARLGDNYRGYFDSWGQGTTVTVSS
VL: DIQLTQSPSFLSASVGDRVTITCKASQDVGTAVVWYQQKPGKAPKLLIDWASIRHTGVPSRFSGSGSGTEFTLTISSLQPEDFADYFCQQYSTYLYTFGGGTKLEIKR
notes: copies: 2 + 2
Regarding B15, in assay [1], binding was put at a Kd of 0.131 nM, the koff turned out to be 0.000139 s⁻¹ and the on-rate (kon) was found to be 1.07e+06 M⁻¹ s⁻¹.
